Measurements reported in PMC3087862 (Nature structural & molecular biology, 2011).

Target: the molecule itself
Experiment: SEC

Protein	stoichiometry N
human Hsp90α two-domain construct MC (293-732) (domain or fragment) not shown	2
human Hsp90α full-length protein without part of the N-M linker (Hsp90Δ; 1-732, 241-268 deleted) (natural protein) not shown	2
